These are literature values, as cited in article PMC3394898.

The pKd is the Kd on a negative log10 scale, so that one unit is a factor of ten.

In this data set the target is NTSR1 (Mus musculus) (UniProt O88319).

pKd: −log10 of the molar value.

UniProt O88319, sequence (O88319 whole entry): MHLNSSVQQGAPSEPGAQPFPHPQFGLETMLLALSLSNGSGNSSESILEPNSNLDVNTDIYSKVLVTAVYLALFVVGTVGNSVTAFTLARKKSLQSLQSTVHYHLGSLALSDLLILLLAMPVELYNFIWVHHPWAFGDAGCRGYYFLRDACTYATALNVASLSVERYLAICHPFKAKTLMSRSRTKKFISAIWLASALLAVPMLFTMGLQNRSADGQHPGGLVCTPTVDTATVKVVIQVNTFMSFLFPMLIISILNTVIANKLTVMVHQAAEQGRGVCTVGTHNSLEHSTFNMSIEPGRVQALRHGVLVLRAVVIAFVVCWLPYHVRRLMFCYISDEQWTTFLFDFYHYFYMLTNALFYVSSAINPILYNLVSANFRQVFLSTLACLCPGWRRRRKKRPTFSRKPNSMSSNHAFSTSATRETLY

As for neurotensin (NTS) (from UniProt P30990), the pKd is 8.30.
